From the RNAGym collection of RNA variant scans (doi:10.7554/elife.80360)

B1: Hairpin Ribozyme (parent)
chain: GUCCUCUUUCACGUGCGCGUGAAAGAGAGAAGUGAACCAGAGAAACACACGUUGUGGUAUAUUACCUGGUA

Variants of: B1
Assay: self-cleavage, relative activity (ratio to wild type); higher = more cleavage; co-transcriptional

Point of comparison: GUCCUCUUUCACGUGCGCGUGAAAGAGAGAAGUGAACCAGAGAUACACACGUUGUGGUAAAUUACCUGGUA [A44U U60A], self-cleavage 0.239. Against it:
- GUCCUCUUUCACGUGCGCGUGAAAGAGAGAAGUGAACCAGAGAACCACACGUUGUGGUAUAUUAGCUGGUA [A45C C65G] — lower, 0.0639
- GUCCUCUUUCACGUGCGCGUGAAAGAGAGAAGUGAACCAGAGAACCACACGUUGUGGUAUAUUAUCUGGUA [A45C C65U] — lower, 0.102
- GUCCUCUUUCACGUGCGCGUGAAAGAGAGAAGUGAACCAGAGAGACACACGUUGUGGUAUAUUACAUGGUA [A44G C66A] — lower, 0.022
- GUCCUCUUUCACGUGCGCGUGAAAGAGAGAAGUGAACCAGAGAGACACACGUUGUGGUAUAAUACCUGGUA [A44G U62A] — lower, 0.0675
- GUCCUCUUUCACGUGCGCGUGAAAGAGAGAAGUGAACCAGAGAGACACACGUUGUGGUAUAGUACCUGGUA [A44G U62G] — lower, 0.207
- GUCCUCUUUCACGUGCGCGUGAAAGAGAGAAGUGAACCAGAGAUACACACGUUGUGGUAUAUUACCUGGUG [A44U A71G] — higher, 0.293
- GUCCUCUUUCACGUGCGCGUGAAAGAGAGAAGUGAACCAGAGAACCACACGUUAUGGUAUAUUACCUGGUA [A45C G54A] — lower, 0.132
- GUCCUCUUUCACGUGCGCGUGAAAGAGAGAAGUGAACCAGAGAUACACACGUUGUUGUAUAUUACCUGGUA [A44U G56U] — lower, 0.231
- GUCCUCUUUCACGUGCGCGUGAAAGAGAGAAGUGAACCAGAGAUACAUACGUUGUGGUAUAUUACCUGGUA [A44U C48U] — lower, 0.15
- GUCCUCUUUCACGUGCGCGUGAAAGAGAGAAGUGAACCAGAGAUACACACGUUGUGGUAUAUGACCUGGUA [A44U U63G] — lower, 0.209
- GUCCUCUUUCACGUGCGCGUGAAAGAGAGAAGUGAACCAGAGAGACACACGUUGUGGUAUAUAACCUGGUA [A44G U63A] — lower, 0.207
- GUCCUCUUUCACGUGCGCGUGAAAGAGAGAAGUGAACCAGAGAGACACACGUUAUGGUAUAUUACCUGGUA [A44G G54A] — lower, 0.151
- GUCCUCUUUCACGUGCGCGUGAAAGAGAGAAGUGAACCAGAGAUACGCACGUUGUGGUAUAUUACCUGGUA [A44U A47G] — lower, 0.0154
- GUCCUCUUUCACGUGCGCGUGAAAGAGAGAAGUGAACCAGAGAGACACAGGUUGUGGUAUAUUACCUGGUA [A44G C50G] — lower, 0.164
- GUCCUCUUUCACGUGCGCGUGAAAGAGAGAAGUGAACCAGAGAUACACACGUUGUGGUAUAUUACCUUGUA [A44U G68U] — lower, 0.187
- GUCCUCUUUCACGUGCGCGUGAAAGAGAGAAGUGAACCAGAGAUACACACGUUGUGGUAUAUUACCCGGUA [A44U U67C] — lower, 0.099
- GUCCUCUUUCACGUGCGCGUGAAAGAGAGAAGUGAACCAGAGAUACACACGUUGUGGUAUAUUACCGGGUA [A44U U67G] — lower, 0.102
- GUCCUCUUUCACGUGCGCGUGAAAGAGAGAAGUGAACCAGAGAUACACACGUUGUGGUAUAUUACCAGGUA [A44U U67A] — lower, 0.143
- GUCCUCUUUCACGUGCGCGUGAAAGAGAGAAGUGAACCAGAGAUACACACGUUGUGGUAUAUUACCUGUUA [A44U G69U] — higher, 0.299
- GUCCUCUUUCACGUGCGCGUGAAAGAGAGAAGUGAACCAGAGAUACACACGUUGUGGUAUAUUACCUGAUA [A44U G69A] — lower, 0.15
- GUCCUCUUUCACGUGCGCGUGAAAGAGAGAAGUGAACCAGAGAGAUACACGUUGUGGUAUAUUACCUGGUA [A44G C46U] — lower, 0.139
- GUCCUCUUUCACGUGCGCGUGAAAGAGAGAAGUGAACCAGAGAGAAACACGUUGUGGUAUAUUACCUGGUA [A44G C46A] — lower, 0.184
- GUCCUCUUUCACGUGCGCGUGAAAGAGAGAAGUGAACCAGAGAUGCACACGUUGUGGUAUAUUACCUGGUA [A44U A45G] — lower, 0.102
- GUCCUCUUUCACGUGCGCGUGAAAGAGAGAAGUGAACCAGAGAUUCACACGUUGUGGUAUAUUACCUGGUA [A44U A45U] — lower, 0.229
- GUCCUCUUUCACGUGCGCGUGAAAGAGAGAAGUGAACCAGAGAACCACACGUUGUUGUAUAUUACCUGGUA [A45C G56U] — lower, 0.203
- GUCCUCUUUCACGUGCGCGUGAAAGAGAGAAGUGAACCAGAGAACCACGCGUUGUGGUAUAUUACCUGGUA [A45C A49G] — lower, 0.0463
- GUCCUCUUUCACGUGCGCGUGAAAGAGAGAAGUGAACCAGAGAACCACCCGUUGUGGUAUAUUACCUGGUA [A45C A49C] — lower, 0.142
- GUCCUCUUUCACGUGCGCGUGAAAGAGAGAAGUGAACCAGAGAGACACACUUUGUGGUAUAUUACCUGGUA [A44G G51U] — lower, 0.175
- GUCCUCUUUCACGUGCGCGUGAAAGAGAGAAGUGAACCAGAGAGACACACAUUGUGGUAUAUUACCUGGUA [A44G G51A] — lower, 0.123
- GUCCUCUUUCACGUGCGCGUGAAAGAGAGAAGUGAACCAGAGAGACACACCUUGUGGUAUAUUACCUGGUA [A44G G51C] — lower, 0.238
- GUCCUCUUUCACGUGCGCGUGAAAGAGAGAAGUGAACCAGAGAUACACACGUUGGGGUAUAUUACCUGGUA [A44U U55G] — lower, 0.0792
- GUCCUCUUUCACGUGCGCGUGAAAGAGAGAAGUGAACCAGAGAUACACACGUUGUGGUAUAAUACCUGGUA [A44U U62A] — higher, 0.26
- GUCCUCUUUCACGUGCGCGUGAAAGAGAGAAGUGAACCAGAGAACCACACGUUGCGGUAUAUUACCUGGUA [A45C U55C] — higher, 0.244
- GUCCUCUUUCACGUGCGCGUGAAAGAGAGAAGUGAACCAGAGAACCACACGUUGGGGUAUAUUACCUGGUA [A45C U55G] — lower, 0.0998
- GUCCUCUUUCACGUGCGCGUGAAAGAGAGAAGUGAACCAGAGAGACACACGUUGUGGUAUAUUACCUGGCA [A44G U70C] — higher, 0.262
- GUCCUCUUUCACGUGCGCGUGAAAGAGAGAAGUGAACCAGAGAGACACACGUUGUGGUAUAUUACCUGAUA [A44G G69A] — lower, 0.0936
- GUCCUCUUUCACGUGCGCGUGAAAGAGAGAAGUGAACCAGAGAUACACACGUUGUGAUAUAUUACCUGGUA [A44U G57A] — lower, 0.0753
